# Measured values from patent US8541373B2, “BChE albumin fusions for the treatment of cocaine abuse” (priority 2009, dated 2013).
# System: cocaine
# Assay: Plasma cocaine, benzoylecgonine and ecgonine methyl ester (LC-MS) and cocaine PK after IV cocaine post-AlbuBChE
# Format: in vivo, cynomolgus monkeys
# Method: Blood was placed into K2EDTA blood collection tubes with esterase inhibitor diisopropylfluorophosphate (DFP). Tubes were inverted several times and placed on wet ice upon collection. Samples were centrifuged at 2-8° C. within 45 minutes of collection. The resultant plasma was recovered and a single 200 μL aliquot of plasma was placed into polypropylene tubes. Plasma samples were frozen over dry ice and stored at −75±15° C.
# The following outline describes the LC-MS-based assay employed for the measurement of cocaine in plasma samples. Prior to MS analysis, plasma samples, calibration standards and controls were extracted using supported liquid extraction (SLE-ISOLUTE, Biotage). Twenty-five microliters of samples (25 μL) received 150 μl of 5% Ammonium hydroxide and 25 μl internal standard solution (Cocaine-d3). After mixing and transfer to SLE plate, samples were eluted with methylene chloride and evaporated to dryness. After resuspension in 50 μl of reconstitution solution—5% ACM in 10 mM ammonium acetate in water, 10 μl was injected onto Thermo Hypercarb column at 0.5 ml/min. Mobile phase was biphasic. Mass spectrophotometric detection was performed using Api 4000, APCI positive interface and Multiple Reaction Monitoring (MRM). Plasma concentrations of cocaine, benzoylecgonine and ecgonine methyl ester were determined using this assay.
# When the data permits, pharmacokinetic parameter values for cocaine and its metabolites were determined using plasma concentration-times profiles for individual animals at all the study days of cocaine administration. […] Specifically the model for non-compartmental analysis with IV bolus input for cocaine and extravascular input for the metabolites.
# [1] = 0.2 mg/kg IM, cocaine 1 mg/kg IV 120 hr post-AlbuBChE, 40 min after cocaine
# [2] = 0.2 mg/kg IM, cocaine 1 mg/kg IV 120 hr post-AlbuBChE, 60 min after cocaine
# [3] = 0.2 mg/kg IM, cocaine 1 mg/kg IV 240 hr post-AlbuBChE
# [4] = 0.2 mg/kg IM, cocaine 1 mg/kg IV 240 hr post-AlbuBChE, 5 min after cocaine
# [5] = 0.2 mg/kg IM, cocaine 1 mg/kg IV 240 hr post-AlbuBChE, 10 min after cocaine
# [6] = 0.2 mg/kg IM, cocaine 1 mg/kg IV 240 hr post-AlbuBChE, 15 min after cocaine
# [7] = 0.2 mg/kg IM, cocaine 1 mg/kg IV 240 hr post-AlbuBChE, 20 min after cocaine
# [8] = 0.2 mg/kg IM, cocaine 1 mg/kg IV 240 hr post-AlbuBChE, 30 min after cocaine
# [9] = 0.2 mg/kg IM, cocaine 1 mg/kg IV 240 hr post-AlbuBChE, 40 min after cocaine
# [10] = 0.2 mg/kg IM, cocaine 1 mg/kg IV 240 hr post-AlbuBChE, 60 min after cocaine
# [11] = 1 mg/kg IM, cocaine 1 mg/kg IV 2 hr post-AlbuBChE
# [12] = 1 mg/kg IM, cocaine 1 mg/kg IV 2 hr post-AlbuBChE, 5 min after cocaine
# [13] = 1 mg/kg IM, cocaine 1 mg/kg IV 2 hr post-AlbuBChE, 10 min after cocaine
# [14] = 1 mg/kg IM, cocaine 1 mg/kg IV 2 hr post-AlbuBChE, 15 min after cocaine
# [15] = 1 mg/kg IM, cocaine 1 mg/kg IV 2 hr post-AlbuBChE, 20 min after cocaine
# [16] = 1 mg/kg IM, cocaine 1 mg/kg IV 2 hr post-AlbuBChE, 30 min after cocaine
# [17] = 1 mg/kg IM, cocaine 1 mg/kg IV 2 hr post-AlbuBChE, 40 min after cocaine
# [18] = 1 mg/kg IM, cocaine 1 mg/kg IV 2 hr post-AlbuBChE, 60 min after cocaine
# [19] = 1 mg/kg IM, cocaine 1 mg/kg IV 48 hr post-AlbuBChE
# [20] = 1 mg/kg IM, cocaine 1 mg/kg IV 48 hr post-AlbuBChE, 5 min after cocaine
# [21] = 1 mg/kg IM, cocaine 1 mg/kg IV 48 hr post-AlbuBChE, 10 min after cocaine
# [22] = 1 mg/kg IM, cocaine 1 mg/kg IV 48 hr post-AlbuBChE, 15 min after cocaine
# [23] = 1 mg/kg IM, cocaine 1 mg/kg IV 48 hr post-AlbuBChE, 20 min after cocaine
# [24] = 1 mg/kg IM, cocaine 1 mg/kg IV 48 hr post-AlbuBChE, 30 min after cocaine
# [25] = 1 mg/kg IM, cocaine 1 mg/kg IV 48 hr post-AlbuBChE, 40 min after cocaine
# [26] = 1 mg/kg IM, cocaine 1 mg/kg IV 48 hr post-AlbuBChE, 60 min after cocaine
# [27] = 1 mg/kg IM, cocaine 1 mg/kg IV 96 hr post-AlbuBChE
# [28] = 1 mg/kg IM, cocaine 1 mg/kg IV 96 hr post-AlbuBChE, 5 min after cocaine
# [29] = 1 mg/kg IM, cocaine 1 mg/kg IV 96 hr post-AlbuBChE, 10 min after cocaine
# [30] = 1 mg/kg IM, cocaine 1 mg/kg IV 96 hr post-AlbuBChE, 15 min after cocaine
substance,measurement,setting,value
AlbuBChE,Ecgonine methyl ester plasma concentration (mean),[1],98 ng/mL
same,Mean benzoylecgonine plasma concentration,[1],61.4 ng/mL
same,Mean cocaine plasma concentration,[1],141 ng/mL
same,Ecgonine methyl ester plasma concentration (mean),[2],82.9 ng/mL
same,Mean benzoylecgonine plasma concentration,[2],66.2 ng/mL
same,Mean cocaine plasma concentration,[2],64.7 ng/mL
same,Mean benzoylecgonine AUC(0-t),[3],4089 ng·min/mL
same,Mean cocaine AUC % Extrap,[3],21.6%
same,Mean cocaine AUC(0-t),[3],13693 ng·min/mL
same,Mean cocaine AUC(0-∞),[3],17650 ng·min/mL
same,Mean cocaine C0,[3],549 ng/mL
same,Mean cocaine CI,[3],57.4 mL/min/kg
same,Mean cocaine Vss,[3],2.181 L/kg
same,Mean cocaine t½,[3],29.2 min
same,Ecgonine methyl ester plasma concentration (mean),[4],20.1 ng/mL
same,Mean benzoylecgonine plasma concentration,[4],53.5 ng/mL
same,Mean cocaine plasma concentration,[4],453 ng/mL
same,Ecgonine methyl ester plasma concentration (mean),[5],23.1 ng/mL
same,Mean benzoylecgonine plasma concentration,[5],53.3 ng/mL
same,Mean cocaine plasma concentration,[5],379 ng/mL
same,Ecgonine methyl ester plasma concentration (mean),[6],25.1 ng/mL
same,Mean benzoylecgonine plasma concentration,[6],62.9 ng/mL
same,Mean cocaine plasma concentration,[6],297 ng/mL
same,Ecgonine methyl ester plasma concentration (mean),[7],28.3 ng/mL
same,Mean benzoylecgonine plasma concentration,[7],63.7 ng/mL
same,Mean cocaine plasma concentration,[7],254 ng/mL
same,Ecgonine methyl ester plasma concentration (mean),[8],33.9 ng/mL
same,Mean benzoylecgonine plasma concentration,[8],69.8 ng/mL
same,Mean cocaine plasma concentration,[8],189 ng/mL
same,Ecgonine methyl ester plasma concentration (mean),[9],38.8 ng/mL
same,Mean benzoylecgonine plasma concentration,[9],74.5 ng/mL
same,Mean cocaine plasma concentration,[9],133 ng/mL
same,Ecgonine methyl ester plasma concentration (mean),[10],41.4 ng/mL
same,Mean benzoylecgonine plasma concentration,[10],80.9 ng/mL
same,Mean cocaine plasma concentration,[10],89.5 ng/mL
same,Mean benzoylecgonine AUC(0-t),[11],1960 ng·min/mL
same,Mean cocaine AUC(0-t),[11],7880 ng·min/mL
same,Mean cocaine C0,[11],422 ng/mL
same,Ecgonine methyl ester plasma concentration (mean),[12],235 ng/mL
same,Mean benzoylecgonine plasma concentration,[12],30.1 ng/mL
same,Mean cocaine plasma concentration,[12],308 ng/mL
same,Ecgonine methyl ester plasma concentration (mean),[13],227 ng/mL
same,Mean benzoylecgonine plasma concentration,[13],33.2 ng/mL
same,Mean cocaine plasma concentration,[13],235 ng/mL
same,Ecgonine methyl ester plasma concentration (mean),[14],276 ng/mL
same,Mean benzoylecgonine plasma concentration,[14],32.5 ng/mL
same,Mean cocaine plasma concentration,[14],179 ng/mL
same,Ecgonine methyl ester plasma concentration (mean),[15],301 ng/mL
same,Mean benzoylecgonine plasma concentration,[15],32.5 ng/mL
same,Mean cocaine plasma concentration,[15],73.7 ng/mL
same,Ecgonine methyl ester plasma concentration (mean),[16],291 ng/mL
same,Mean benzoylecgonine plasma concentration,[16],28.9 ng/mL
same,Mean cocaine plasma concentration,[16],102 ng/mL
same,Ecgonine methyl ester plasma concentration (mean),[17],202 ng/mL
same,Mean benzoylecgonine plasma concentration,[17],38.4 ng/mL
same,Mean cocaine plasma concentration,[17],96.9 ng/mL
same,Ecgonine methyl ester plasma concentration (mean),[18],189 ng/mL
same,Mean benzoylecgonine plasma concentration,[18],29.6 ng/mL
same,Mean cocaine plasma concentration,[18],19.7 ng/mL
same,Mean benzoylecgonine AUC(0-t),[19],1668 ng·min/mL
same,Mean cocaine AUC % Extrap,[19],11.9%
same,Mean cocaine AUC(0-t),[19],5965 ng·min/mL
same,Mean cocaine AUC(0-∞),[19],6764 ng·min/mL
same,Mean cocaine C0,[19],226 ng/mL
same,Mean cocaine CI,[19],150 mL/min/kg
same,Mean cocaine Vss,[19],4.304 L/kg
same,Mean cocaine t½,[19],19.0 min
same,Ecgonine methyl ester plasma concentration (mean),[20],201 ng/mL
same,Mean benzoylecgonine plasma concentration,[20],24.0 ng/mL
same,Mean cocaine plasma concentration,[20],176 ng/mL
same,Ecgonine methyl ester plasma concentration (mean),[21],32.2 ng/mL
same,Mean benzoylecgonine plasma concentration,[21],23.7 ng/mL
same,Mean cocaine plasma concentration,[21],140 ng/mL
same,Ecgonine methyl ester plasma concentration (mean),[22],48.2 ng/mL
same,Mean benzoylecgonine plasma concentration,[22],24.9 ng/mL
same,Mean cocaine plasma concentration,[22],152 ng/mL
same,Ecgonine methyl ester plasma concentration (mean),[23],56.2 ng/mL
same,Mean benzoylecgonine plasma concentration,[23],26.7 ng/mL
same,Mean cocaine plasma concentration,[23],128 ng/mL
same,Ecgonine methyl ester plasma concentration (mean),[24],63.8 ng/mL
same,Mean benzoylecgonine plasma concentration,[24],29.8 ng/mL
same,Mean cocaine plasma concentration,[24],87.0 ng/mL
same,Ecgonine methyl ester plasma concentration (mean),[25],64.9 ng/mL
same,Mean benzoylecgonine plasma concentration,[25],29.6 ng/mL
same,Mean cocaine plasma concentration,[25],62.3 ng/mL
same,Ecgonine methyl ester plasma concentration (mean),[26],57.3 ng/mL
same,Mean benzoylecgonine plasma concentration,[26],29.8 ng/mL
same,Mean cocaine plasma concentration,[26],29.1 ng/mL
same,Mean benzoylecgonine AUC(0-t),[27],2741 ng·min/mL
same,Mean cocaine AUC % Extrap,[27],18.4%
same,Mean cocaine AUC(0-t),[27],10044 ng·min/mL
same,Mean cocaine AUC(0-∞),[27],12313 ng·min/mL
same,Mean cocaine C0,[27],288 ng/mL
same,Mean cocaine CI,[27],81.6 mL/min/kg
same,Mean cocaine Vss,[27],2.94 L/kg
same,Mean cocaine t½,[27],23.9 min
same,Ecgonine methyl ester plasma concentration (mean),[28],138 ng/mL
same,Mean benzoylecgonine plasma concentration,[28],43.9 ng/mL
same,Mean cocaine plasma concentration,[28],265 ng/mL
same,Ecgonine methyl ester plasma concentration (mean),[29],39.8 ng/mL
same,Mean benzoylecgonine plasma concentration,[29],41.2 ng/mL
same,Mean cocaine plasma concentration,[29],245 ng/mL
same,Ecgonine methyl ester plasma concentration (mean),[30],42.9 ng/mL
same,Mean benzoylecgonine plasma concentration,[30],40.0 ng/mL
same,Mean cocaine plasma concentration,[30],218 ng/mL
